B1: murine C3b Asn1115 (complex)
chain 1: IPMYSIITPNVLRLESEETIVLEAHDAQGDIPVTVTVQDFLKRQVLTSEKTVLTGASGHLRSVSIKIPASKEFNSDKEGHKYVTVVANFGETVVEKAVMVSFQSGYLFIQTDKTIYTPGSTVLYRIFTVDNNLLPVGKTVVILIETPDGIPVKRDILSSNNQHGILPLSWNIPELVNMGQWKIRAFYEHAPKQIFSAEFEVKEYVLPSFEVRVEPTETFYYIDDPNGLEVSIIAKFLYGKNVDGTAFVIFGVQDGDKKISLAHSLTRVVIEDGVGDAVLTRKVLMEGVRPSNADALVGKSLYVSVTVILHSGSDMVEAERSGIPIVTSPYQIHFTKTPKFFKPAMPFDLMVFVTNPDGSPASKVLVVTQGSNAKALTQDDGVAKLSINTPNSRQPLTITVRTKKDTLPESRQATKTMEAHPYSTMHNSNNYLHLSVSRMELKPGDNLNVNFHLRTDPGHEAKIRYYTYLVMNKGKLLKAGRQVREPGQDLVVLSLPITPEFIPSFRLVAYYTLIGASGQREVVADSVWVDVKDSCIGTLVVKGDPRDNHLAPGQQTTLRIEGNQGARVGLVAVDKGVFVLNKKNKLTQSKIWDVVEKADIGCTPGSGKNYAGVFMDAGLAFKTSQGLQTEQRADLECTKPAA
chain 2: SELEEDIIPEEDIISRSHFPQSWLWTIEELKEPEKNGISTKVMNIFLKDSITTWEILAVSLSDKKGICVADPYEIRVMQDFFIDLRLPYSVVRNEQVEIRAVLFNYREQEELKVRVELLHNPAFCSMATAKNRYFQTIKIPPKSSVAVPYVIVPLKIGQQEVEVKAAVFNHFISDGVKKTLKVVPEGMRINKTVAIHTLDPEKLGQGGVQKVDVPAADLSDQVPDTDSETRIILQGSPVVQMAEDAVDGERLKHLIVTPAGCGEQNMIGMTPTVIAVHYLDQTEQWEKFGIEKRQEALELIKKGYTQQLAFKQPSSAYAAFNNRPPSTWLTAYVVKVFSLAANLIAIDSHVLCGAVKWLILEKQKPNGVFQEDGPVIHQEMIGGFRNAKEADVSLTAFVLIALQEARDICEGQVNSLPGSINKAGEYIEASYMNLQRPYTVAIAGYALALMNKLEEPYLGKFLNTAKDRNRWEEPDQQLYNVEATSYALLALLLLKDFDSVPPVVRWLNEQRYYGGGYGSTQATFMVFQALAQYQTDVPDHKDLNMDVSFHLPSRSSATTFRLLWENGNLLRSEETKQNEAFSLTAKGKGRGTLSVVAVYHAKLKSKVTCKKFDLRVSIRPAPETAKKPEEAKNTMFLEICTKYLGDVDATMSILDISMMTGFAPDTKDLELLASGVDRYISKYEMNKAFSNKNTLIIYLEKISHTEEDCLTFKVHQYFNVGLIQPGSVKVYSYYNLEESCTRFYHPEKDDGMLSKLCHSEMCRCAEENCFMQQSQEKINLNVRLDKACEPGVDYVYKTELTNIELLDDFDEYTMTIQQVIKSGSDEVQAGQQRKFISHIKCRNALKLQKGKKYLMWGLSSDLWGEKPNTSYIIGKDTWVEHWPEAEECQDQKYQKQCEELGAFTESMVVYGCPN
modifications: C3b made from plasma-purified C3 by factor B/factor D cleavage (C3a released); beta and alpha' chains disulfide-linked; thioester (Cys1010-Gln1013) hydrolysed; N-glycosylated; amine-coupled to CM5 …
B2: full-length mouse serum-derived FH (natural protein, UniProt P06909 19-1234, looked up)
chain: EDCKGPPPRENSEILSGSWSEQLYPEGTQATYKCRPGYRTLGTIVKVCKNGKWVASNPSRICRKKPCGHPGDTPFGSFRLAVGSQFEFGAKVVYTCDDGYQLLGEIDYRECGADGWINDIPLCEVVKCLPVTELENGRIVSGAAETDQEYYFGQVVRFECNSGFKIEGHKEIHCSENGLWSNEKPRCVEILCTPPRVENGDGINVKPVYKENERYHYKCKHGYVPKERGDAVCTGSGWSSQPFCEEKRCSPPYILNGIYTPHRIIHRSDDEIRYECNYGFYPVTGSTVSKCTPTGWIPVPRCTLKPCEFPQFKYGRLYYEESLRPNFPVSIGNKYSYKCDNGFSPPSGYSWDYLRCTAQGWEPEVPCVRKCVFHYVENGDSAYWEKVYVQGQSLKVQCYNGYSLQNGQDTMTCTENGWSPPPKCIRIKTCSASDIHIDNGFLSESSSIYALNRETSYRCKQGYVTNTGEISGSITCLQNGWSPQPSCIKSCDMPVFENSITKNTRTWFKLNDKLDYECLVGFENEYKHTKGSITCTYYGWSDTPSCYERECSVPTLDRKLVVSPRKEKYRVGDLLEFSCHSGHRVGPDSVQCYHFGWSPGFPTCKGQVASCAPPLEILNGEINGAKKVEYSHGEVVKYDCKPRFLLKGPNKIQCVDGNWTTLPVCIEEERTCGDIPELEHGSAKCSVPPYHHGDSVEFICEENFTMIGHGSVSCISGKWTQLPKCVATDQLEKCRVLKSTGIEAIKPKLTEFTHNSTMDYKCRDKQEYERSICINGKWDPEPNCTSKTSCPPPPQIPNTQVIETTVKYLDGEKLSVLCQDNYLTQDSEEMVCKDGRWQSLPRCIEKIPCSQPPTIEHGSINLPRSSEERRDSIESSSHEHGTTFSYVCDDGFRIPEENRITCYMGKWSTPPRCVGLPCGPPPSIPLGTVSLELESYQHGEEVTYHCSTGFGIDGPAFIICEGGKWSDPPKCIKTDCDVLPTVKNAIIRGKSKKSYRTGEQVTFRCQSPYQMNGSDTVTCVNSRWIGQPVCKDNSCVDPPHVPNATIVTRTKNKYLHGDRVRYECNKPLELFGQVEVMCENGIWTEKPKCRDSTGKCGPPPPIDNGDITSLSLPVYEPLSSVEYQCQKYYLLKGKKTITCRNGKWSEPPTCLHACVIPENIMESHNIILKWRHTEKIYSHSGEDIEFGCKYGYYKARDSPPFRTKCINGTINYPTCV
notes: mouse complement factor H, full length, from serum; also called murine FH; mouse FH

Key:
Experiment in all cases: SPR; BIAcore S200; murine C3b (WT or Asn1115) amine coupled to a CM5 chip (930 ± 10 RU); analytes in 2-fold dilution series in HBST (10 mM HEPES, 150 mM NaCl, 0.005% Tween-20, pH 7.4), 30 μl/min for 200 s; steady-state model
Settings in all cases: both partners purified
[1] = biological target: T1, recombinant murine Crry SCRs 1–5 (mouse)
T1 construct: mouse Crry (complement receptor 1-related protein), short consensus repeats 1–5; also called recombinant mouse Crry; mouse Crry; source: recombinant
T1 sequence (P01027 749-1663, change not shown, chain 1 of 2): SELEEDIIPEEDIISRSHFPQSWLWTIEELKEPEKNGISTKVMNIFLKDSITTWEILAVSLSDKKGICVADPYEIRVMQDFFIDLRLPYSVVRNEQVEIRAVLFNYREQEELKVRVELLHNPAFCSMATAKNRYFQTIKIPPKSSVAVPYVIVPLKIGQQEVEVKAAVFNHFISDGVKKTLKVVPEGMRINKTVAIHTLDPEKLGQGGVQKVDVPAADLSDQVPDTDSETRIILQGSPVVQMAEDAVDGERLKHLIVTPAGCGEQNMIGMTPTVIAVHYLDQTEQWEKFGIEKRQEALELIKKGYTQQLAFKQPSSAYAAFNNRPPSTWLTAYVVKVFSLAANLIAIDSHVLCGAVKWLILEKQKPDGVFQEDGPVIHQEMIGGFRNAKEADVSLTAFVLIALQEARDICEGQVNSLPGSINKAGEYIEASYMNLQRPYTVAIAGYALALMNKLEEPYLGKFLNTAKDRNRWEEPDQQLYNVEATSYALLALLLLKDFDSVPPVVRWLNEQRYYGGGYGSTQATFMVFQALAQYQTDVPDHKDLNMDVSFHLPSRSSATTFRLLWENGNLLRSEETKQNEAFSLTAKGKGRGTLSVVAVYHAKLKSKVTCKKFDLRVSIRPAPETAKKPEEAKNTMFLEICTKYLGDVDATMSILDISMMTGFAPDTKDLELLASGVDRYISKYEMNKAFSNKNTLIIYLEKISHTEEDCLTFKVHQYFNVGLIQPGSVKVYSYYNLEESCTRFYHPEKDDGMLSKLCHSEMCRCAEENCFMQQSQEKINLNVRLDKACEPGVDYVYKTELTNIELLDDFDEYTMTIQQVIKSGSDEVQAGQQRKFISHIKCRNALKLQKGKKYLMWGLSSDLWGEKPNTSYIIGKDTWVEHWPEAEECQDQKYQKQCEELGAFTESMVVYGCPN
T1 sequence (P01027 749-1663 D1115N, chain 2 of 2): as the sequence (P01027 749-1663, change not shown, chain 1 of 2) above, with D367N counted along it

[2] = biological target: T2, recombinant murine FH SCRs 1–5 (mouse)
T2 construct: mouse complement factor H, short consensus repeats 1–5; also called recombinant mouse FH1–5; mFH SCRs 1–5; source: recombinant

[3] = biological target: B1

Kd [1]	Kd [2]	Kd [3]	Binder
3.5 µM	3.1 µM		B1
		3.7 µM	B2
